Source: patent US20220160939A1, “SELF-ASSEMBLING PEPTIDES AS BRONCHIAL OBSTRUCTION AGENTS” (3-D MATRIX, LTD., priority 2014, published 2022)
Where no end group is shown, it is not given here.

Key:
[1] = Appearance of 1.5% peptide solutions with various salts at room temperature; type: physicochemical; conditions: for Appearance: room temperature
Description: The effect of salt ionic strength level on the properties of peptide solutions was evaluated to identify optimized salt ionic strength levels for the peptides as described herein. Increasing the salt ionic strength level of PuraMatrix® (SEQ ID NO:1) and other peptides may generally improve its function and mechanical strength for various clinical applications. To adjust the salt ionic strength of the peptide solutions by way of example, various salt buffer solutions including NaCl, KCl, MgCl2, CaCl2 and DPBS (10×) were added to 2 mL of 1.5% peptide solutions.

[2] = Rheological properties of peptide solutions at adjusted salt ionic strength; type: physicochemical
Description: Based on the visual observation of the effect of salt ionic strength on the properties of the peptide solutions, the effect on the rheological properties of the peptide solutions after adjusting their ionic strength level with NaCl to 0.7 M (PuraMatrix® (SEQ ID NO:1)), 0.2 M (KLD12 (SEQ ID NO:3)) or 0.02 M (IEIK13 (SEQ ID NO:2)), which is closely below the critical ionic strength at which each peptide becomes cloudy, was evaluated. If the ionic strength levels with NaCl of peptide solutions are higher than 0.9 M (PuraMatrix® (SEQ ID NO:1)), 0.3 M (KLD12 (SEQ ID NO:3)) or 0.03 M (IEIK13 (SEQ ID NO:2)), the peptide solutions begin phase separation becoming cloudy and weak. The rheological property of PuraMatrix® (SEQ ID NO:1), KLD12 (SEQ ID NO:3) and IEIK13 (SEQ ID NO:2) solutions was higher after adjusting their ionic strength level with NaCl to 0.7 M (PuraMatrix® (SEQ ID NO:1)), 0.2 M (KLD12 (SEQ ID NO:3)) or 0.02 M (IEIK13 (SEQ ID NO:2)). The results are shown in FIG. 10 for KLD12 (SEQ ID NO:3) 1%, FIG. 11 for IEIK13 (SEQ ID NO:2) 1%, and FIG. 12 for PuraMatrix® (SEQ ID NO:1) 1%, respectively. Frequency sweep tests were performed from 1 rad/s to 10 rad/s at 1 Pa.
Based on the results of the effect on the rheological properties of the peptide solutions after adjusting their ionic strength level with NaCl to 0.7 M (PuraMatrix® (SEQ ID NO:1)), 0.2 M (KLD12 (SEQ ID NO:3)) or 0.02 M (IEIK13 (SEQ ID NO:2)), the effect on the rheological properties of the peptide solution at various salt ionic strengths was evaluated. […] The results are shown in FIG. 13 for PuraMatrix® (SEQ ID NO:1) 1% solutions and in FIG. 14 for IEIK13 (SEQ ID NO:2) 1% solutions. Frequency sweep tests were performed from 1 rad/sec to 10 rad/sec at 1 Pa and the storage modulus at 1 rad/sec was selected for data.
Based on the results of the effect on the rheological properties of the peptide solutions and hydrogels after adjusting their ionic strength levels with NaCl, the effect of various salts (KCl, MgCl2, and CaCl2) was also evaluated. The rheological property of PuraMatrix® (SEQ ID NO:1) solutions increases with ionic strength adjustment at 0.15 M of all the salts. Increases of the rheological property of PuraMatrix® (SEQ ID NO:1) solutions with various salts were not predominantly different. However, increases of the rheological property of PuraMatrix® (SEQ ID NO:1) solutions may vary depending on the salting out constant, K of each salt. Constant K is a constant in Cohen's equation: log S=B−KI, where S is solubility, B is idealized solubility, K is salting out constant, and I is ionic strength. With a higher value of constant K and ionic strength of salts, solubility of the peptide may decrease resulting in strong peptide self-assembly with increased hydrophobic effect and higher rheological properties of the peptide solution. The constant K of NaCl may be higher than the other salts. […] The results are shown in FIG. 17 for PuraMatrix® (SEQ ID NO:1) 1% solution before DMEM treatment, and in FIG. 18 for PuraMatrix® (SEQ ID NO:1) 1% hydrogels after DMEM treatment for 10 min Frequency sweep tests were performed from 1 rad/sec to 10 rad/sec at 1 Pa and the storage modulus at 1 rad/sec was selected for data.

KLDLKLDLKLDL [KLD12]
Clear, thick, stiffer gel: Appearance ([1]; CaCl2 0.05 M, ionic strength 0.15 M, conc. 1.48%) | Appearance ([1]; CaCl2 0.067 M, ionic strength 0.2 M, conc. 1.47%) | Appearance ([1]; CaCl2 0.083 M, ionic strength 0.25 M, conc. 1.46%) | Appearance ([1]; CaCl2 0.1 M, ionic strength 0.3 M, conc. 1.45%) | Appearance ([1]; CaCl2 0.117 M, ionic strength 0.35 M, conc. 1.44%) | Appearance ([1]; KCl 0.05 M, ionic strength 0.5 M, conc. 1.48%) | Appearance ([1]; KCl 0.1 M, ionic strength 0.1 M, conc. 1.45%) | Appearance ([1]; KCl 0.15 M, ionic strength 0.15 M, conc. 1.43%) | Appearance ([1]; KCl 0.2 M, ionic strength 0.2 M, conc. 1.4%) | Appearance ([1]; KCl 0.25 M, ionic strength 0.25 M, conc. 1.38%) | Appearance ([1]; MgCl2 0.05 M, ionic strength 0.15 M, conc. 1.48%) | Appearance ([1]; MgCl2 0.067 M, ionic strength 0.2 M, conc. 1.47%) | Appearance ([1]; MgCl2 0.083 M, ionic strength 0.25 M, conc. 1.46%) | Appearance ([1]; MgCl2 0.1 M, ionic strength 0.3 M, conc. 1.45%) | Appearance ([1]; MgCl2 0.117 M, ionic strength 0.35 M, conc. 1.44%) | Appearance ([1]; NaCl 0.05 M, ionic strength 0.5 M, conc. 1.48%) | Appearance ([1]; NaCl 0.1 M, ionic strength 0.1 M, conc. 1.45%) | Appearance ([1]; NaCl 0.15 M, ionic strength 0.15 M, conc. 1.43%) | Appearance ([1]; NaCl 0.2 M, ionic strength 0.2 M, conc. 1.4%) | Appearance ([1]; NaCl 0.25 M, ionic strength 0.25 M, conc. 1.38%)
Slightly cloudy, brittle gel: Appearance ([1]; CaCl2 0.15 M, ionic strength 0.45 M, conc. 1.43%) | Appearance ([1]; KCl 0.35 M, ionic strength 0.35 M, conc. 1.32%) | Appearance ([1]; MgCl2 0.15 M, ionic strength 0.45 M, conc. 1.43%) | Appearance ([1]; NaCl 0.35 M, ionic strength 0.35 M, conc. 1.32%)
0.25˜0.35 M: salt ionic strength increase that did not change the clear color, while apparent stiffness increased ([1]; depending on different salts, 1.5% peptide solutions)
Slightly cloudy, thick, stiffer gel: Appearance ([1]; CaCl2 0.133 M, ionic strength 0.4 M, conc. 1.43%) | Appearance ([1]; KCl 0.3 M, ionic strength 0.3 M, conc. 1.35%) | Appearance ([1]; MgCl2 0.133 M, ionic strength 0.4 M, conc. 1.43%) | Appearance ([1]; NaCl 0.3 M, ionic strength 0.3 M, conc. 1.35%)
higher: rheological property after adjusting ionic strength level with NaCl ([2]; NaCl to 0.7 M (PuraMatrix), 0.2 M (KLD12) or 0.02 M (IEIK13), 1% solutions)
Clear, thick gel: Appearance ([1]; CaCl2 0 M, ionic strength 0 M, conc. 1.5%) | Appearance ([1]; KCl 0 M, ionic strength 0 M, conc. 1.5%) | Appearance ([1]; MgCl2 0 M, ionic strength 0 M, conc. 1.5%) | Appearance ([1]; NaCl 0 M, ionic strength 0 M, conc. 1.5%)
0.3˜0.4 M: critical salt ionic strengths at which peptides become cloudy [1]
> 0.3 M: ionic strength level with NaCl above which solutions begin phase separation becoming cloudy and weak ([2]; NaCl)
Cloudy, phase-separated: Appearance ([1]; CaCl2 0.167 M, ionic strength 0.5 M, conc. 1.42%) | Appearance ([1]; KCl 0.4 M, ionic strength 0.4 M, conc. 1.3%) | Appearance ([1]; MgCl2 0.167 M, ionic strength 0.5 M, conc. 1.42%) | Appearance ([1]; NaCl 0.4 M, ionic strength 0.4 M, conc. 1.3%)
